Assay results from US20050129695A1 (published 2005).

B1: anti-Aβ monoclonal antibody C706 (antibody, V domains shown)
VH: QVQLQQSGPELMKPGASVKISCKATGYTFSTSWIEWIKQRPGHGLEWIGEVLPGSGKSNHNANFKGRATFTADTASNTAYMQLSSLTSEDSAVYYCAREGSNNNALAYWGQGTLVTVSA
VL: QIVLTQSPAIMSASPGEKVTMTCSASSSVSYMHWYQQKSGTSPKRWIYDSSRLASGVPSRFSGGGSGTSYSPTISNMEAEDAATYFCQNWRSSPTFGAGTKLELKR
notes: Tested as protein G purified IgG, detected with goat anti-mouse IgG; also called C706 mAb
B2: anti-Aβ monoclonal antibody C705 (antibody, V domains shown)
VH: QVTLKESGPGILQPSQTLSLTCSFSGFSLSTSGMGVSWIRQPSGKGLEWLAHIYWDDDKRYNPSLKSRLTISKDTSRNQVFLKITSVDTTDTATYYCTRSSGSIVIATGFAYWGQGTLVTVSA
VL: DVMMTQTPLSLPVSLGDQASISCRSSQSLVHSNGNTYLEWYMQKPGQSPMLLIYKVSNRFSGVPDRFSGSGSGTDFTLKISSVEAEDLGVFYCFQGSRVPLTFGAGTKLELKR
notes: Tested as protein G purified IgG, detected with goat anti-mouse IgG; also called C705 mAb
B3: anti-Aβ monoclonal antibody C701 (antibody, V domains shown)
VH: EGQLQQSGAELVRSGASLKLSCTASGFNIKDHYVHWVRQRPEQGLDWIGWIAPKNGYSESAPKFQGKASMTADTSSNTVYLQLSSLTSEDTAVYYCFAGFYDSSLYWGQGTTLTVSS
VL: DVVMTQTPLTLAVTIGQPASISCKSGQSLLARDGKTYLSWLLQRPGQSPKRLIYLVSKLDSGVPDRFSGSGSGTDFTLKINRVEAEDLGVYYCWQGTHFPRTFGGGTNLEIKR
notes: Tested as protein G purified IgG, detected with goat anti-mouse IgG; also called C701 mAb
B4: anti-Aβ monoclonal antibody C707 (antibody, V domains shown)
VH: EVQLQQSGPDLVKPGASVKTSCKTSGYSFTEYIMSWVRQSHGKSLEWIGSINPNTGGSRYNQKFKGKATLTVDKSSSTAYMEFRSLTSEDSAVYYCARGDFDYWGQGTTLTVSS
VL: DIVMTQAAFSNPVTLGTSASISCRSSKNLLHSNGITYLYWYLQRPGQSPQLLISRVSNLASGVPNRFSGSESGTDFTLRISRVEAEDVGVYYCAQLLELPFTFGSGTKLEIKR
notes: Tested as protein G purified IgG, detected with goat anti-mouse IgG; also called C707 mAb

target: T1, Aβ38 peptide (1-38) (UniProt P05067 672-709); test: BIAcore 3000, antibody amine-coupled to CM5, peptide injected; qualitative
T1 construct: domain: Aβ38 (1-38 peptide); Injected over immobilized antibodies in BIAcore; also called 1-38 peptide
Method: (§1) BIAcore 3000, CM5 sensor surface, amine coupling kit, HEPES buffered saline (HBS, 10 mM HEPES 150 mM NaCl, pH7.4 with 3 mM EDTA and 0.005% Tween-20) and 10 mM sodium acetate pH 4.5 were purchased from Biacore, Inc. (Piscataway, N.J.). Anti-Aβmonoclonal antibodies (100 ug/mL) were dialyzed against HBS diluted 1:10 with water. Then, the dialyzed mAb solution was diluted 1:10 into 10 mM sodium acetate pH 4.5. The CM5 sensor surface was equilibrated in the BIAcore 3000 with HBS. Each antibody was immobilized onto a flow cell using the immobilization wizard provided in the operating software and the protocols supplied with the amine coupling kit. The wizard was set to immobilize 2500 RU of antibody. Typically 2000-3000 RU were actually immobilized.
(§2) For each mAb response, data as a function of time were collected (FIG. 46). From the sensorgram, report points are taken 10 seconds prior to the injection of the peptide, 10 seconds prior to the completion of the association phase, and 60 seconds into the dissociation phase. […] These calculations are made possible by assuming that 1 RU=1 pg of peptide (or protein)/mm².
(§3) Due to the potentially multiple aggregation states of the 1-38 and 1-42 peptides, a quantitative analysis of the binding constants is not possible. However, a qualitative analysis is possible. FIG. 47 ranks the mAbs as a function of binding ratio and fraction remaining on the surface after 60 seconds reflecting the stability of the complex. From this analysis C705 and C707 appear to be capable of binding to “monomeric” peptide, where as C701 and C706 requires the peptide to be aggregated to some extent before they can bind.

T1 sequence (P05067 672-709 limits assumed): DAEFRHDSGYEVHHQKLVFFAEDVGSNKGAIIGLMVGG

binding result	Binder
binds	B1
binds	B2
binds	B3
binds	B4

target: T2, human Aβ1-42 (human, UniProt P05067 672-713); test: as above
T2 construct: domain: Aβ1-42; same polypeptide, aggregation state differs; also called Aβ42; 1-42 peptide
Method: as §1, §2, §3

T2 sequence (P05067 672-713 limits assumed): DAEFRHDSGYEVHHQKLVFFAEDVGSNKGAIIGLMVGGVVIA

binding result	Binder
binds	B1
binds	B2
binds	B3
binds	B4
